Test results published in US20030012785A1 (WATSON PHARMACEUTICALS, published 2003).

Target: T1, IL-2 receptor (mouse, on CTLL-2 cells and murine splenocytes) (mouse, UniProt P01590 22-268; P16297 27-539; P34902 23-369)
T1 sequence (looked up) 1: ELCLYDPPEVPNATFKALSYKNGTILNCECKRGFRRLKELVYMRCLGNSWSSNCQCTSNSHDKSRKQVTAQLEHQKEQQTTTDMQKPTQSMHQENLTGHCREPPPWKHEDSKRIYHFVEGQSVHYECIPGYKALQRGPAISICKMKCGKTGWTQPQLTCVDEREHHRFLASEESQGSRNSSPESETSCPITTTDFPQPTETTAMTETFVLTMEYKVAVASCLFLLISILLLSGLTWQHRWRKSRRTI
T1 sequence (looked up) 2: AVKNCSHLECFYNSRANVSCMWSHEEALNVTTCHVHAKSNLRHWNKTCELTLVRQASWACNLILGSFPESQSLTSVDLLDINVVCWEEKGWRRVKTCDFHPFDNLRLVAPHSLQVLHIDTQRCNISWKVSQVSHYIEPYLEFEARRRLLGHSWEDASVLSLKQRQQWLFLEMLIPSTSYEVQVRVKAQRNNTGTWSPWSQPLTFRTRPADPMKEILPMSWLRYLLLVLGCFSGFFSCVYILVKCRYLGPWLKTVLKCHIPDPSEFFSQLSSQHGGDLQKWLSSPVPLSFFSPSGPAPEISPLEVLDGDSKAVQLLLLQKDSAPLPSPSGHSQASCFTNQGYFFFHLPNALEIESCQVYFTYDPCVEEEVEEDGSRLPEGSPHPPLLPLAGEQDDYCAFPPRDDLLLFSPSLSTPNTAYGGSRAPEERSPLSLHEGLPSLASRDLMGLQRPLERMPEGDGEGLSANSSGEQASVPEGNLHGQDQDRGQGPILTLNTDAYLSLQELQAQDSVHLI
T1 sequence (looked up) 3: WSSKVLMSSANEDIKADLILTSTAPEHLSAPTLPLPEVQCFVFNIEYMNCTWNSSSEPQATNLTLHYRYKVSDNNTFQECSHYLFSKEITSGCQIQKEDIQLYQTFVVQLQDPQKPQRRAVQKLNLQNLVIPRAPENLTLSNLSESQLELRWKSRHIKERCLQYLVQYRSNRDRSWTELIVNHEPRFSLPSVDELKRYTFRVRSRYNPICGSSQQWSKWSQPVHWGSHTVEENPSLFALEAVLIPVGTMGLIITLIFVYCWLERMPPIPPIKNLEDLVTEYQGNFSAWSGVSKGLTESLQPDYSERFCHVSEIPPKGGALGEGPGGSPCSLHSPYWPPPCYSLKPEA
Experiment: cell-based or functional assay

B1: unconjugated peptide TT23 (peptide)
peptide: TGLNRILLGFLG
- Percent inhibition of IL-2 induced proliferation of murine splenocytes (recombinant human IL-2, trypan blue viable cell counts, 48 hours); amount needed relative to PEG-TT23: ~100 fold
